Assay results reported in patent US20190271705A1.

Legend:
Experiment in all cases: fluorescence polarization in solution
[1] = molecular target: EGFR-pY978 peptide
[2] = molecular target: fluorescein-GGpYGG peptide (SEQ ID NO: 23)
[3] = molecular target: MidT-pY324 peptide
[4] = molecular target: ShcA-pY239 peptide

Row | Substance | Kd [1] [nM] | Kd [2] [nM] | Kd [3] [nM] | Kd [4] [nM]
1 | T8V/C10A/K15L variant Src SH2 domain (designed binder) | 1 | 510 | 1 | 1
2 | wild-type Fyn SH2 domain (hexa-histidine-tagged construct, SEQ ID NO:4) |  | 67000 |  | 
